Reference: patent publication US20240101716A1
Residue numbers refer to the chain shown, from its start.

B1: HSP210-03-hz51 (antibody, V domains shown)
VH: QVQLVQSGAEVKKPGSSVKVSCKASGYTFTSNYIHWVRQAPGQGLEWMGWIYPGDADTNYNQKFNGRVTLTADKSTSTAYMELSSLRSEDTAVYYCAINYGGIWFAYWGQGTLVTVSS
VL: DIQMTQSPSSLSASVGDRVTITCQASQDIGNKLIWYQQKPGKAPKLLIYYVTNLPGGVPSRFSGSGSGTDFTLTISSLQPEDFATYYCLQYKQNPLTFGQGTKLEIK
B2: HSP210-02-hz52 (antibody, V domains shown)
VH: QVQLVQSGAEVKKPGASVKVSCKASGFNFEDTYMHWVRQAPGQGLEWMGRIDPADADTKYNPKFQDRVTITVDTSTNTAYMELSSLRSEDTAVYYCVRGNYVNWGQGTTVTVSS
VL: EIVLTQSPGTLSLSPGERATLSCRASSSVSSSYLYWYQQKPGQAPRLLIYSTSNLASGIPDRFSGSGSGTDYTLTISRLEPEDAAVYFCHQWYSYPRTFGGGTKVEIK
B3: HSP210-03-hz22 (antibody, V domains shown)
VH: B1 VH with A56G, L70I
VL: B1 VL with Y36F, Y49H, G66R, T69S, F71Y
B4: HSP210-03-hz52 (antibody, V domains shown)
VH: B1 VH
VL: B1 VL with Y36F, Y49H, G66R, T69S, F71Y
B5: HSP210-03-hz32 (antibody, V domains shown)
VH: B1 VH with A56G
VL: B1 VL with Y36F, Y49H, G66R, T69S, F71Y
B6: HSP210-03-hz42 (antibody, V domains shown)
VH: B1 VH with D55E, A56G
VL: B1 VL with Y36F, Y49H, G66R, T69S, F71Y
B7: HSP210-02-Chi (antibody, V domains shown)
VH: EVQLQQSGAELVKPGASVKLSCTASGFNFEDTYMHWVKQRPDQGLEWIGRIDPADGDTKYNPKFQDKATITVDTSSNTAYLQLSSLTSEDTAVYYCVRGNYVNWGQGTTLTVSS
VL: QIVLIQSPAIMSASPGERVTLTCRASSSVSSSYLYWYQQKPGSSPKLWIYSTSNLASGVPARFSGSGSGTSYSLTISSMEAEDAASYFCHQWYSYPRTFGGGTKLEIK
B8: HSP210-02-hz42 (antibody, V domains shown)
VH: B2 VH with D55E, A56G
VL: B2 VL
B9: HSP210-02-hz22 (antibody, V domains shown)
VH: B2 VH with A56G, I70M
VL: B2 VL
B10: HSP210-02-hz32 (antibody, V domains shown)
VH: B2 VH with A56G
VL: B2 VL
B11: HSP210-03-Chi (antibody, V domains shown)
VH: QVQLQQSGTELVKPGSSVKISCKASGYTFTSNYIHWIRQQPGNGLEWIGWIYPGDGDTNYNQKFNGKATLTADKSSSTAYMQLSSLTSEDYAVYFCAINYGGIWFAYWGQGTLVTVSS
VL: DIQMTQSPSSMSASLGDRVTITCQASQDIGNKLIWFQQKPGKSPRLMIHYVTNLPGGVPLRFSGSRSGSDYSLTISSLESEDMADYYCLQYKQNPLTFGSGTKLEIK
B12: HSP210-01-hz22 (antibody, V domains shown)
VH: QVQLQESGPGLVKPSETLSLTCTFSGFSLNTYDIGMGWIRQPPGKGLEWIGHIWWNDREYYNSALQSRVTISKDTSKTQVSLKLSSVTAADTAVYYCVRIDYFGSGQAWFTYWGQGTLVTVSS
VL: EIVLTQSPGTLSLSPGERATLSCSSSSTISSTYLHWYQQKPGQAPRLLISGTSNLASGIPDRFSGSGSGTDYTLTISRLEPEDVAVYYCQQGSRIPFTFGQGTKLEIK
B13: HSP210-01-hz32 (antibody, V domains shown)
VH: B12 VH with G51A
VL: B12 VL
B14: HSP210-01-hz52 (antibody, V domains shown)
VH: B12 VH with G51A, N62S
VL: B12 VL
B15: HSP210-01-hz62 (antibody, V domains shown)
VH: B12 VH with G51A, S63P
VL: B12 VL
B16: HSP210-01-hz61 (antibody, V domains shown)
VH: B12 VH with G51A, S63P
VL: B12 VL with S50Y, Y72F, V84F
B17: 248G3F6 (antibody, V domains shown)
VH: B7 VH
VL: B7 VL
B18: 300A6A6 (antibody, V domains shown)
VH: B11 VH
VL: B11 VL

molecular target: SIRP-α expressed on cells (UniProt P78324); assay: FACS binding test on SIRP-a cell line, Geom.Mean; unit from the axis log(nm)

EC50 [nM] | Binder
0.417 | B1
0.54 | B2

molecular target: SIRPα (blocking assay of Example 11) (UniProt P78324); assay: blocking of the CD47/SIRPα interaction, ratio 665 nm/615 nm against antibody concentration

IC50 (read off the curve) [nM] | Binder
0.1 | B1
0.1 | B2

molecular target: SIRPα-His protein (UniProt P78324); assay: competition ELISA, SIRPα-His binding to coated CD47-Fc

IC50 [nM] | Binder
0.16 | B3
0.13 | B4
0.145 | B5
0.13 | B6
0.14 | B7
0.11 | B2
0.12 | B8
0.092 | B9
0.11 | B10
0.14 | B11
0.21 | B12
0.16 | B13
0.23 | B14
0.16 | B15
0.21 | B16

molecular target: SIRPα-His protein (UniProt P78324); assay: competition ELISA: SIRPα-His binding to coated CD47-Fc in the presence of the antibody, OD450

IC50 [µg/mL] | Binder
0.356 | B17
0.383 | B18

molecular target: recombinant human SIRPα variant 1 protein (human) (UniProt P78324); assay: SPR Biacore 8K, antibody captured, antigen analyte
Sequence (P78324 31-370, change not shown): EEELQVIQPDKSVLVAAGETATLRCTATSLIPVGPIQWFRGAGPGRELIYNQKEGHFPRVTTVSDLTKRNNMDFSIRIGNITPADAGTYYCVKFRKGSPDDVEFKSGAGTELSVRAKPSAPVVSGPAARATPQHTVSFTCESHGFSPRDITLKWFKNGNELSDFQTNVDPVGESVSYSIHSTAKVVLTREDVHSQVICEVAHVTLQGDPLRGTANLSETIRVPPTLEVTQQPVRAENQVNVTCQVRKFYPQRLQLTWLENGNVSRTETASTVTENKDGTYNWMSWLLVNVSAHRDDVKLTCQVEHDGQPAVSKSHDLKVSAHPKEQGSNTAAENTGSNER

Kd [nM] | koff [s⁻¹] | kon [M⁻¹ s⁻¹] | Binder
0.999 | 0.000804 | 805000 | B1
2 | 0.000374 | 187000 | B17
0.423 | 0.000298 | 704000 | B2
1.13 | 0.000148 | 131000 | B18

molecular target: recombinant human SIRPα variant 1 protein (human) (UniProt P78324); assay: ELISA on coated recombinant human SIRPα v1, OD450

EC50 [µg/mL] | Binder
0.0182 | B17
0.0121 | B18
